Reference: publication PMC3043148 (Biochemistry, 2011)
Like-named read-outs stand apart in the source and are kept apart here.

B1: human adenylosuccinate lyase (ASL), wild type, His-tag (enzyme)
chain: MAAGGDHGSPDSYRSPLASRYASPEMCFVFSDRYKFRTWRQLWLWLAEAEQTLGLPITDEQIQEMKSNLENIDFKMAAEEEKRLRHDVMAHVHTFGHCCPKAAGIIHLGATSCYVGDNTDLIILRNALDLLLPKLARVISRLADFAKERASLPTLGFTHFQPAQLTTVGKRCCLWIQDLCMDLQNLKRVRDDLRFRGVKGTTGTQASFLQLFEGDDHKVEQLDKMVTEKAGFKRAFIITGQTYTRKVDIEVLSVLASLGASVHKICTDIRLLANLKEMEEPFEKQQIGSSAMPYKRNPMRSERCCSLARHLMTLVMDPLQTASVQWFERTLDDSANRRICLAEAFLTADTILNTLQNISEGLVVYPKVIERRIRQELPFMATENIIMAMVKAGGSRQDCHEKIRVLSQQAASVVKQEGGDNDLIERIQVDAYFSPIHSQLDHLLDPSSFTGRASQQVQRFLEEEVYPLLKPYESVMKVKAE
B2: human adenylosuccinate lyase (ASL) R194C, His-tag (enzyme)
chain: MAAGGDHGSPDSYRSPLASRYASPEMCFVFSDRYKFRTWRQLWLWLAEAEQTLGLPITDEQIQEMKSNLENIDFKMAAEEEKRLRHDVMAHVHTFGHCCPKAAGIIHLGATSCYVGDNTDLIILRNALDLLLPKLARVISRLADFAKERASLPTLGFTHFQPAQLTTVGKRCCLWIQDLCMDLQNLKRVRDDLCFRGVKGTTGTQASFLQLFEGDDHKVEQLDKMVTEKAGFKRAFIITGQTYTRKVDIEVLSVLASLGASVHKICTDIRLLANLKEMEEPFEKQQIGSSAMPYKRNPMRSERCCSLARHLMTLVMDPLQTASVQWFERTLDDSANRRICLAEAFLTADTILNTLQNISEGLVVYPKVIERRIRQELPFMATENIIMAMVKAGGSRQDCHEKIRVLSQQAASVVKQEGGDNDLIERIQVDAYFSPIHSQLDHLLDPSSFTGRASQQVQRFLEEEVYPLLKPYESVMKVKAE

What was measured:
AUC [1] = target: the molecule itself; experiment: AUC
AUC [2] = target: the molecule itself; experiment: AUC; remark: listed apart in the source
AUC [3] = target: the molecule itself; experiment: AUC; remark: listed apart in the source
[4] = target: B1; experiment: AUC
[5] = target: B2; experiment: AUC
[6] = target: B1; experiment: AUC; remark: listed apart in the source
[7] = target: B2; experiment: AUC; remark: listed apart in the source
[8] = target: B1; experiment: in vitro subunit hybridisation with separation on Ni-NTA
[9] = target: B2; experiment: as above

Binder: B1
- stoichiometry N (AUC [1]): 4
- percent tetramer (M-Tet model) (AUC [2]): 77%

Binder: B2
- stoichiometry N (AUC [1]): 4
- percent tetramer (M-Tet model) (AUC [2]): 73%

B3: human adenylosuccinate lyase (ASL) R396H, His-tag (enzyme)
chain: MAAGGDHGSPDSYRSPLASRYASPEMCFVFSDRYKFRTWRQLWLWLAEAEQTLGLPITDEQIQEMKSNLENIDFKMAAEEEKRLRHDVMAHVHTFGHCCPKAAGIIHLGATSCYVGDNTDLIILRNALDLLLPKLARVISRLADFAKERASLPTLGFTHFQPAQLTTVGKRCCLWIQDLCMDLQNLKRVRDDLRFRGVKGTTGTQASFLQLFEGDDHKVEQLDKMVTEKAGFKRAFIITGQTYTRKVDIEVLSVLASLGASVHKICTDIRLLANLKEMEEPFEKQQIGSSAMPYKRNPMRSERCCSLARHLMTLVMDPLQTASVQWFERTLDDSANRRICLAEAFLTADTILNTLQNISEGLVVYPKVIERRIRQELPFMATENIIMAMVKAGGSHQDCHEKIRVLSQQAASVVKQEGGDNDLIERIQVDAYFSPIHSQLDHLLDPSSFTGRASQQVQRFLEEEVYPLLKPYESVMKVKAE
- stoichiometry N (AUC [1]): 4

B4: human adenylosuccinate lyase (ASL) L311V, His-tag (enzyme)
chain: MAAGGDHGSPDSYRSPLASRYASPEMCFVFSDRYKFRTWRQLWLWLAEAEQTLGLPITDEQIQEMKSNLENIDFKMAAEEEKRLRHDVMAHVHTFGHCCPKAAGIIHLGATSCYVGDNTDLIILRNALDLLLPKLARVISRLADFAKERASLPTLGFTHFQPAQLTTVGKRCCLWIQDLCMDLQNLKRVRDDLRFRGVKGTTGTQASFLQLFEGDDHKVEQLDKMVTEKAGFKRAFIITGQTYTRKVDIEVLSVLASLGASVHKICTDIRLLANLKEMEEPFEKQQIGSSAMPYKRNPMRSERCCSLARHVMTLVMDPLQTASVQWFERTLDDSANRRICLAEAFLTADTILNTLQNISEGLVVYPKVIERRIRQELPFMATENIIMAMVKAGGSRQDCHEKIRVLSQQAASVVKQEGGDNDLIERIQVDAYFSPIHSQLDHLLDPSSFTGRASQQVQRFLEEEVYPLLKPYESVMKVKAE
- stoichiometry N (AUC [1]): 4
- percent tetramer (M-Tet model) (AUC [2]): 68%

B5: human adenylosuccinate lyase (ASL) R396C, His-tag (enzyme)
chain: MAAGGDHGSPDSYRSPLASRYASPEMCFVFSDRYKFRTWRQLWLWLAEAEQTLGLPITDEQIQEMKSNLENIDFKMAAEEEKRLRHDVMAHVHTFGHCCPKAAGIIHLGATSCYVGDNTDLIILRNALDLLLPKLARVISRLADFAKERASLPTLGFTHFQPAQLTTVGKRCCLWIQDLCMDLQNLKRVRDDLRFRGVKGTTGTQASFLQLFEGDDHKVEQLDKMVTEKAGFKRAFIITGQTYTRKVDIEVLSVLASLGASVHKICTDIRLLANLKEMEEPFEKQQIGSSAMPYKRNPMRSERCCSLARHLMTLVMDPLQTASVQWFERTLDDSANRRICLAEAFLTADTILNTLQNISEGLVVYPKVIERRIRQELPFMATENIIMAMVKAGGSCQDCHEKIRVLSQQAASVVKQEGGDNDLIERIQVDAYFSPIHSQLDHLLDPSSFTGRASQQVQRFLEEEVYPLLKPYESVMKVKAE
- stoichiometry N (AUC [1]): 4
- percent tetramer (M-Tet model) (AUC [2]): 78%

B6: human adenylosuccinate lyase (ASL) R396C, non-His-tag (enzyme)
chain: MAAGGDHGSPDSYRSPLASRYASPEMCFVFSDRYKFRTWRQLWLWLAEAEQTLGLPITDEQIQEMKSNLENIDFKMAAEEEKRLRHDVMAHVHTFGHCCPKAAGIIHLGATSCYVGDNTDLIILRNALDLLLPKLARVISRLADFAKERASLPTLGFTHFQPAQLTTVGKRCCLWIQDLCMDLQNLKRVRDDLRFRGVKGTTGTQASFLQLFEGDDHKVEQLDKMVTEKAGFKRAFIITGQTYTRKVDIEVLSVLASLGASVHKICTDIRLLANLKEMEEPFEKQQIGSSAMPYKRNPMRSERCCSLARHLMTLVMDPLQTASVQWFERTLDDSANRRICLAEAFLTADTILNTLQNISEGLVVYPKVIERRIRQELPFMATENIIMAMVKAGGSCQDCHEKIRVLSQQAASVVKQEGGDNDLIERIQVDAYFSPIHSQLDHLLDPSSFTGRASQQVQRFLEEEVYPLLKPYESVMKVKAE
- stoichiometry N (AUC [3]): 4
- stoichiometry N [4]: 4
- stoichiometry N [5]: 4
- percent tetramer (M-Tet model), pool 2 [6]: 72%
- percent tetramer (M-Tet model), pool 3 [6]: 70%
- percent tetramer (M-Tet model), pool 2 [7]: 78%
- percent tetramer (M-Tet model), pool 3 [7]: 80%
- subunit ratio (Non-His-tag: His-tag) by SDS-PAGE, pool 2 [8]: 1.2 non-His-tag per His-tag subunit
- subunit ratio (Non-His-tag: His-tag) by SDS-PAGE, pool 3 [8]: 2.3 His-tag per non-His-tag subunit
- subunit ratio (Non-His-tag: His-tag) by SDS-PAGE, pool 2 [9]: 1.2 non-His-tag per His-tag subunit
- subunit ratio (Non-His-tag: His-tag) by SDS-PAGE, pool 3 [9]: 3.2 His-tag per non-His-tag subunit
